Results on one molecule are retold here after patent publication US20170101442A1.

Ends that are not written are not given here.

The target of test [1] is insulin-like growth factor 2 receptor (IGF2R) on rat hepatic stellate cells HSC-T6 (rat). Briefly: flow cytometry, uptake of 5-FAM labelled peptide by HSC-T6 cells, 1 h. For orientation: Flow cytometry measures light scatter and fluorescence of single cells or particles in a stream.
The target is the same in test [2]. Briefly: flow cytometry, 5-FAM labelled peptide titrated on HSC-T6 cells, 1 h at 37 C; apparent Kd.

With VHWDFRQWWQPS (also: 5-FAM label, position not given here) [Peptide-431], the cellular uptake in test [1] was determined as 12%. Moreover, in test [2], the Kd is 12.3 µM.
